# Data reported in paper PMC2836939.
# Where two headings read alike, the source gives them in different places.
# T1: Dmp1 (Dmtf1) (UniProt Q8CE22 1-761)
# T1 sequence: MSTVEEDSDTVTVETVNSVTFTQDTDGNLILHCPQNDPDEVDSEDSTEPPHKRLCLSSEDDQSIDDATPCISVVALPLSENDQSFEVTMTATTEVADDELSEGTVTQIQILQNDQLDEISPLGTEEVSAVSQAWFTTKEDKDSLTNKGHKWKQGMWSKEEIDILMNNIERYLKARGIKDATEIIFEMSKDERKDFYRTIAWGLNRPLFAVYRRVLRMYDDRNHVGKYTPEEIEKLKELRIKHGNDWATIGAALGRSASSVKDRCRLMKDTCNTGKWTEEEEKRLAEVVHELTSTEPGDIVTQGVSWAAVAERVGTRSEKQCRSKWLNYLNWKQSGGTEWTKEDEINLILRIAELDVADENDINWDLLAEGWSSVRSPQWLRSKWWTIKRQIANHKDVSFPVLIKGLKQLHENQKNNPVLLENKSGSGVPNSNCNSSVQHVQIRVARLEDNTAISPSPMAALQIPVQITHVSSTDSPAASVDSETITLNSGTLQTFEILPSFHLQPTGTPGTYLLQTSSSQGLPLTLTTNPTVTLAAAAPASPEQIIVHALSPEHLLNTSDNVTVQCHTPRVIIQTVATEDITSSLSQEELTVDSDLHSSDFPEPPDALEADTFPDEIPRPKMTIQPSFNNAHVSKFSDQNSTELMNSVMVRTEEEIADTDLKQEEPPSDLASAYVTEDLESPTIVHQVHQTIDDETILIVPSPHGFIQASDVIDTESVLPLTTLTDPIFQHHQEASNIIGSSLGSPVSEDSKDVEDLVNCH
# B1: Areg#1 (dsDNA)
# DNA 1: TTTACCCCAGAACGGGATGGGGAGCAT
# DNA 2: ATGCTCCCCATCCCGTTCTGGGGTAAA
# B2: Areg#2 (dsDNA)
# DNA 1: TTTGCTCAGGTGAGCATCCGCCACCTCTCAGG
# DNA 2: CCTGAGAGGTGGCGGATGCTCACCTGAGCAAA
# B3: Tsp-1#1 (dsDNA)
# DNA 1: TTTCAGAGCCTGCGTATGTTATAACG
# DNA 2: CGTTATAACATACGCAGGCTCTGAAA
# B4: JunB#1 (dsDNA)
# DNA 1: TTTTTTTCTTCCAAGCTGGGCGGATGGAGGGAGAAGATTG
# DNA 2: CAATCTTCTCCCTCCATCCGCCCAGCTTGGAAGAAAAAAA
# B5: Egr1#1 (dsDNA)
# DNA 1: TTTAAAACGAAGGTGGAGGCGGATGGAGAGAGAGAGAGAGAG
# DNA 2: CTCTCTCTCTCTCTCTCCATCCGCCTCCACCTTCGTTTTAAA
# B6: JunB#2 (control) (dsDNA)
# DNA 1: TTTGAGCCCTGGGAGCCATCCGAGCGGCTTTCAACAGACC
# DNA 2: GGTCTGTTGAAAGCCGCTCGGATGGCTCCCAGGGCTCAAA
# Key:
# Test in all cases: EMSA
# [1] = target: T1, Dmp1 (Dmtf1)
# [2] = target: T1, Dmp1 (Dmtf1); remark: listed apart in the source
# [3] = target: T1, Dmp1 (Dmtf1); remark: listed apart in the source
# [4] = target: T1, Dmp1 (Dmtf1); remark: listed apart in the source
# [5] = target: T1, Dmp1 (Dmtf1); remark: listed apart in the source
binder,measurement,setting,value
B1,binding result,[1],binds
B2,binding result,[2],binds
B3,binding result,[3],binds
B4,binding result,[4],binds
B5,binding result,[5],binds
B6,binding result,[4],no binding
